The assay deals with Proteinase 3 (PR3), purified (UniProt P24158). The assay is described as follows: SPR; BIAcore 3000; PR3 immobilised on a CM5 chip by amine coupling; C1q, gC1q or cC1q as soluble analytes; 50 mM Tris, 150 mM NaCl, 2 mM Ca2+, 0.005% surfactant P20, pH 7.4; flow 20 µl/min; global fit to a 1:1 Langmuir model; apparent KD from koff/kon.
Sequence of Proteinase 3 (PR3), purified (P24158 28-248): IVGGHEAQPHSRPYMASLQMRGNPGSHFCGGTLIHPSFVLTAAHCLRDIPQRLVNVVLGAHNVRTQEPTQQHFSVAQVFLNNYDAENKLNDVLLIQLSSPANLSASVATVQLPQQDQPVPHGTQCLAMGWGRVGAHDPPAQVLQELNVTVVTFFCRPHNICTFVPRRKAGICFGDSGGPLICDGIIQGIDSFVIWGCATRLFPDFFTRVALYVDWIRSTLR

As to “globular region of C1q (gC1q) (domain or fragment)”, the Kd was 400 nM; the koff (usually the first-order rate constant of dissociation) came out at 0.0072 s⁻¹; the on-rate constant (kon) – broadly, the second-order rate constant of association – was found to be 18000 M⁻¹ s⁻¹.

The values are drawn from PMC5932363.
